Laboratory results reported in PMC8172837.
“And” between values parts separate entries of the source, which are not always exact repeats. Equal values may be shown once. Blank lines part the entries; values can stand above or below the substance they belong to.

Legend:
[1] = target: Aβ in the dimer and trimer bands of the culture media of C99 transfected CHO cells (isoform not determined) (human); assay: SDS-PAGE and western blot of oligomer bands; CHO cell lysates (4% SDS lysis buffer, heated 10 min at 70 °C with 50 mM DTT) and lyophilised culture media 48 h after transfection; 4-12% NuPAGE bis-tris gels; detected with anti-Aβ W0-2
[2] = target: C99-derived hexameric Aβ42 (cell-derived amyloid-β 42 from CHO cells transfected with C99) (human) (UniProt P05067); assay: GELFrEE fractionation by size and western blot; Aβ immunoprecipitated with W0-2 from media, boiled at 95 °C with DTT, separated on the GELFrEE 8100 system; fractions blotted with W0-2; hexamer in fraction 5
[3] = target: C99-derived hexameric Aβ42 (cell-derived amyloid-β 42 from CHO cells transfected with C99) (human) (UniProt P05067); assay: SDS-PAGE and western blot of oligomer bands; CHO cell lysates (4% SDS lysis buffer, heated 10 min at 70 °C with 50 mM DTT) and lyophilised culture media 48 h after transfection; 4-12% NuPAGE bis-tris gels; detected with anti-Aβ W0-2
[4] = target: Hexameric Aβ from CHO cells transfected with C99 carrying the Arctic (E22G) FAD mutation (human); assay: as above
[5] = target: Hexameric Aβ from CHO cells transfected with C99 carrying the Dutch (E22Q) FAD mutation (human); assay: as above
[6] = target: Hexameric Aβ from CHO cells transfected with C99 carrying the Flemish (A21G) FAD mutation (human); assay: as above
[7] = target: Hexameric Aβ from CHO cells transfected with C99 carrying the Iowa (D23N) FAD mutation (human); assay: as above
[8] = target: Hexameric Aβ from CHO cells transfected with C99 carrying the Italian (E22K) FAD mutation (human); assay: as above
[9] = target: vC42, assembly-impaired variant of Aβ42 (F19S, G37D) from transfected CHO cells (human); assay: as above

Substance: C99-derived hexameric Aβ42 (cell-derived amyloid-β 42 from CHO cells transfected with C99) (from UniProt P05067 672-770) (peptide)
- stoichiometry N [2]: 6
- stoichiometry N [3]: 6

Substance: Hexameric Aβ from CHO cells transfected with C99 carrying the Dutch (E22Q) FAD mutation (peptide)
- stoichiometry N [5]: 6

Substance: Hexameric Aβ from CHO cells transfected with C99 carrying the Flemish (A21G) FAD mutation (peptide)
- stoichiometry N [6]: 6

Substance: Hexameric Aβ from CHO cells transfected with C99 carrying the Iowa (D23N) FAD mutation (peptide)
- stoichiometry N [7]: 6

More lines, now with the values ahead:

- stoichiometry N [1]: 2 and 3
Substance: Aβ in the dimer and trimer bands of the culture media of C99 transfected CHO cells (isoform not determined) (peptide)

- stoichiometry N [4]: 6
Substance: Hexameric Aβ from CHO cells transfected with C99 carrying the Arctic (E22G) FAD mutation (peptide)

- stoichiometry N [8]: 6
Substance: Hexameric Aβ from CHO cells transfected with C99 carrying the Italian (E22K) FAD mutation (peptide)

- stoichiometry N [9]: 2 and 3
Substance: vC42, assembly-impaired variant of Aβ42 (F19S, G37D) from transfected CHO cells (peptide)
